Experimental data from patent US20160362464A1 (University of California, published 2016).

B1: His-DAPLE-CT (aa 1650-2028) (other)
chain: GTAPPYVGVRPCSASPSSEMVTLEEFLEESNRSSPTHDTPSCRDDLLSDYFRKASDPPAIGGQPGPPAKKEGAKMPTNFVAPTVKMAAPTSEGRPLKPGQYVKPNFRLTEAEAPPSVAPRQAQPPQSLSLGRPRQAPVPPASHAPASRSASLSRAFSLASADLLRASGPEACKQESPQKLGAPEALGGRETGSHTLQSPAPPSSHSLARERTPLVGKAGSSCQGPGPRSRPLDTRRFSLAPPKEERLAPLHQSATAPAIATAGAGAAAAGSGSNSQLLHFSPAAAPAARTKPKAPPRSGEVATITPVRAGLSLSEGDGVPGQGCSEGLPAKSPGRSPDLAPHLGRALEDCSRGSVSKSSPASPEPGGDPQTVWYEYGCV
notes: Recombinant, purified from E. coli; also called His-DAPLE-CT WT; DAPLE-CT WT; not shown: His tag and vector residues of pET28b
B3: His-Gαi3 (GDP-loaded) (other, rat, UniProt P08753 1-354, looked up)
chain: MGCTLSAEDKAAVERSKMIDRNLREDGEKAAKEVKLLLLGAGESGKSTIVKQMKIIHEDGYSEDECKQYKVVVYSNTIQSIIAIIRAMGRLKIDFGEAARADDARQLFVLAGSAEEGVMTSELAGVIKRLWRDGGVQACFSRSREYQLNDSASYYLNDLDRISQTNYIPTQQDVLRTRVKTTGIVETHFTFKELYFKMFDVGGQRSERKKWIHCFEGVTAIIFCVALSDYDLVLAEDEEMNRMHESMKLFDSICNNKWFTDTSIILFLNKKDLFEEKIKRSPLTICYPEYTGSNTYEEAAAYIQCQFEDLNRRKDTKEVYTHFTCATDTKNVQFVFDAVTDVIIKNNLKECGLY
notes: also called recombinant His-Gαi3; not shown: His tag

Key:
His-Gαi3 (GDP-loaded) [1] = molecular target: B3; assay: cell-based or functional assay
[2] = molecular target: T1, GST-Gαi3 preloaded with GDP (inactive) (rat, UniProt P08753 1-354); assay: displacement of Gβγ from preformed GST-Gαi3·Gβγ complexes, immunoblot fitted to a single-site competition curve (FIG. 3C)
T1 construct: Immobilized on glutathione beads; Same polypeptide as m11, other nucleotide state; also called GST-Gαi3 WT; not shown: glutathione S-transferase tag of the pGEX-4T-1 vector
Text: FIGS. 3A-3J. DAPLE's GBA motif triggers the release of ‘free’ Gβγ subunits, which in turn enhance Rac1 and PI3K-Akt signaling. (A) DAPLE's GBA motif and Gβγ subunits are predicted to dock onto an overlapping binding site on Gαi. Binding areas (in red) for DAPLE (left) or Gβγ (right) on Gαi (solid grey) were extracted from a homology-based model of DAPLE-Gαi3 and the crystal structure of the Gαi1·Gβγ complex (PBD: 1GG2), respectively. (B, C) DAPLE displaces Gβγ subunits from Gαi3 via its GEF motif. GST-Gαi3·Gβγ preformed complexes immobilized on glutathione beads were incubated with increasing concentrations of His-DAPLE-CT WT or F1675A (FA). Bound proteins were analyzed by immunoblotting (B) and Gβγ binding data fitted to a single-site competition curve (C). Mean±S.E.M. of 3 independent experiments. […] Control (shLuc) or two clones of DAPLE-depleted HeLa cell lines (shDAPLE 1 and 2) (described in FIGS. 10A & 10B) were incubated in 2% serum media (D) or starved and treated (+) or not (β) with Wnt5a ([…]) for 5 min (E) and analyzed for Rac1 activation by pulldown assays using GST-PBD. […] DAPLE-depleted (shDAPLE 1) HeLa cells transiently transfected with myc-DAPLE-WT or FA were starved and stimulated with Wnt5a and analyzed for Rac1 activation as in E. (G, H) DAPLE's GBA motif is required for activation of PI3K-Akt signaling in HeLa cells, as determined by phosphorylation of Akt at 5473. […]

[3] = molecular target: B1; assay: GST pulldown, purified proteins, inactive or active conformations (FIG. 1H)
Experimental: Equal aliquots of lysates of HEK293 cells expressing Gαi3-FLAG were incubated with anti-FLAG mAb or control IgG and protein G beads. Immune complexes were analyzed for DAPLE and Gαi3 (FLAG) by immunoblotting (IB). Gβ was monitored as positive Gαi3-binding control. […] Resin-bound proteins were eluted, separated by SDS-PAGE and analyzed by Ponceau S-staining and immunoblotting (IB) with the indicated antibodies. No binding to GST alone was detected. […] No binding of myc-DAPLE or Gβ to GST alone was detected. […] Insert, Purified GST-DAPLE-CT and GST-GIV (aa 1671-1755, containing the GBA motif) immobilized on glutathione-agarose beads were incubated with increasing amounts (0.01-3 μM) of purified His-Gαi3 (GDP-loaded) and binding analyzed by immunoblotting as described in (D). No binding to GST alone was detected at the highest His-Gαi3 concentration tested. Graph, Gαi3 binding was quantified by measuring band intensities and data fitted to a single-site binding hyperbola (DAPLE=BLUE, GIV=RED) to determine the equilibrium dissociation constants (Kd). Mean±S.E.M of 4 independent experiments. (G) DAPLE binds to all three Gαi subunits. […] (H) DAPLE selectively binds to Gαi, but not Gao.

GST-FZD7-CT = molecular target: T2, GST-FZD7-CT (UniProt P08515 1-218 = GST); assay: GST-FZD7-CT pulldown of His-Gαi3 with His-DAPLE-CT WT against His-Gαi3 alone (FIG. 4E)
T2 construct: Immobilized on glutathione beads directly from bacterial lysates; also called GST-FZD7R-CT; Fzl17-CT

GST-DAPLE-CT = molecular target: T3, GST-DAPLE-CT (human, UniProt Q9P219 1650-2028); assay: GST pulldown with 0.01-3 µM His-Gαi3, band intensities fitted to a one-site binding curve (FIG. 1F)
T3 construct: also called GST-DAPLE-CT WT; not shown: glutathione S-transferase tag of the pGEX-4T vector
T3 sequence: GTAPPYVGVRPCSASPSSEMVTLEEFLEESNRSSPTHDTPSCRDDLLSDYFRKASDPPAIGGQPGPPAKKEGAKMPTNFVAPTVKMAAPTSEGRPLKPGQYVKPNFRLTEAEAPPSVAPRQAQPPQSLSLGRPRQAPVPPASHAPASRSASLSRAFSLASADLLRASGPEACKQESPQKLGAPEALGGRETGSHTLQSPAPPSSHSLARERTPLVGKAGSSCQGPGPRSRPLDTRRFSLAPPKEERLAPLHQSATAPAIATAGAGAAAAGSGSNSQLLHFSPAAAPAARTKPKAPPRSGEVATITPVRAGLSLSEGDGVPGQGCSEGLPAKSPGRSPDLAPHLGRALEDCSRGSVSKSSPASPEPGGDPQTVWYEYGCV

His-Gαi3 (GDP-loaded) [4] = molecular target: B3; assay: as above
[5] = molecular target: T4, myc-DAPLE full length F1675A (human, UniProt Q9P219 1-2028); assay: co-immunoprecipitation with anti-FLAG mAb from Cos7 cells (FIG. 2E)
T4 construct: Expressed in Cos7 cells; used as cell lysate; also called myc-DAPLE FA; DAPLE-FA; not shown: N-terminal myc tag of myc-pcDNA 3.1 (+)

T2 sequence (P08515 whole entry): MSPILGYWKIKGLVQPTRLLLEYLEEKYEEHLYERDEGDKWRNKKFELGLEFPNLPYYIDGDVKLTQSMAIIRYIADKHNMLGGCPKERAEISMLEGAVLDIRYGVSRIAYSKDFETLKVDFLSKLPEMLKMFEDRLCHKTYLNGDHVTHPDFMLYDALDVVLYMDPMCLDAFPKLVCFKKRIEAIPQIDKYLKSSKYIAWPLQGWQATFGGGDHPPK

B1
EC50 of the acceleration of Gαi3 steady-state GTPase activity (His-Gαi3 (GDP-loaded) [1]): 250 nM
rate of steady-state GTP hydrolysis of His-Gαi3 (His-Gαi3 (GDP-loaded) [1]): ~3 fold
IC50 [2]: 160 nM

B2: GST-Gao (other, rat, UniProt P59215 1-354, looked up)
chain: MGCTLSAEERAALERSKAIEKNLKEDGISAAKDVKLLLLGAGESGKSTIVKQMKIIHEDGFSGEDVKQYKPVVYSNTIQSLAAIVRAMDTLGVEYGDKERKADSKMVCDVVSRMEDTEPFSAELLSAMMRLWGDSGIQECFNRSREYQLNDSAKYYLDSLDRIGAADYQPTEQDILRTRVKTTGIVETHFTFKNLHFRLFDVGGQRSERKKWIHCFEDVTAIIFCVALSGYDQVLHEDETTNRMHESLMLFDSICNNKFFIDTSIILFLNKKDLFGEKIKKSPLTICFPEYPGSNTYEDAAAYIQTQFESKNRSPNKEIYCHMTCATDTNNIQVVFDAVTDIIIANNLRGCGLY
notes: also called Gαo; not shown: glutathione S-transferase tag of the pGEX-4T-1 vector
binding result [3]: no binding

B3
fold increase of binding in the presence of DAPLE-CT WT (GST-FZD7-CT): ~5 fold
Kd (GST-DAPLE-CT): 110 nM

B4: GST-GIV (aa 1671-1755) (other, UniProt Q3V6T2 1671-1755, looked up)
chain: IKTGSPGSEVVTLQQFLEESNKLTSVQIKSSSQENLLDEVMKSLSVSSDFLGKDKPVSCGLARSVSGKTPGDFYDRRTTKPEFLR
notes: range 1671-1755; also called GST-GIV CT 1671-1755 aa; not shown: glutathione S-transferase tag
Kd (His-Gαi3 (GDP-loaded) [4]): 240 nM

B5: Gαi3-FLAG (other, rat, UniProt P08753 1-354, looked up)
chain: MGCTLSAEDKAAVERSKMIDRNLREDGEKAAKEVKLLLLGAGESGKSTIVKQMKIIHEDGYSEDECKQYKVVVYSNTIQSIIAIIRAMGRLKIDFGEAARADDARQLFVLAGSAEEGVMTSELAGVIKRLWRDGGVQACFSRSREYQLNDSASYYLNDLDRISQTNYIPTQQDVLRTRVKTTGIVETHFTFKELYFKMFDVGGQRSERKKWIHCFEGVTAIIFCVALSDYDLVLAEDEEMNRMHESMKLFDSICNNKWFTDTSIILFLNKKDLFEEKIKRSPLTICYPEYTGSNTYEEAAAYIQCQFEDLNRRKDTKEVYTHFTCATDTKNVQFVFDAVTDVIIKNNLKECGLY
notes: Expressed in HEK293 or Cos7 cells; immunoprecipitated with anti-FLAG mAb; also called FLAG-Gαi3; not shown: FLAG tag
binding result [5]: no binding
